Numbering of substitutions follows the chain as printed. One block for each binder: values may come before it.
Columns and labels:
[1] = target: T1, human C-C chemokine receptor type 8 (hCCR8) (human, UniProt P51685 1-355); assay: cell-based or functional assay
[2] = target: T1, human C-C chemokine receptor type 8 …; assay: cell-based or functional assay; remark: listed apart in the source
[3] = target: T2, human CCR4 (hCCR4) (human, UniProt P51679 1-360); assay: flow cytometry on hCCR4-expressing CHO-K1 cells against parental CHO-K1 cells
T2 construct: whole, on cells
T2 sequence (looked up): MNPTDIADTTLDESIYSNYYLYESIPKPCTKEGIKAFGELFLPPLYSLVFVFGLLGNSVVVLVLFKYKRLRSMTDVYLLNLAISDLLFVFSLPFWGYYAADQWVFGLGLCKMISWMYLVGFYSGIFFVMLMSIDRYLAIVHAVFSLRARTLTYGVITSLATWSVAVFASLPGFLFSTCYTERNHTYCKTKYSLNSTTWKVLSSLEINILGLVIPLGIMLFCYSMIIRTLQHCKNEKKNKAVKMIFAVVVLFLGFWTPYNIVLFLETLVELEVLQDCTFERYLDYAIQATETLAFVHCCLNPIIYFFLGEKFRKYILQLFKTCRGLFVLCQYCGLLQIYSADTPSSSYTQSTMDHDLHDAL
Method: The antibodies were further screened for binding to human CCR4 (hCCR4) by flow cytometry. The antibodies were incubated with CHO-K1 cells and hCCR4-expressing CHO-K1 cells for 60 minutes at 4° C. The cells were washed thoroughly with PBS buffer and were then incubated with FITC-conjugated goat anti-mouse IgG Fc antibody or anti-human IgG Fc antibody. Mean Fluorescence Intensity (MFI) of antibody binding on the cells were analyzed by flow cytometry (Table 7).

T1 sequence (P51685 whole entry): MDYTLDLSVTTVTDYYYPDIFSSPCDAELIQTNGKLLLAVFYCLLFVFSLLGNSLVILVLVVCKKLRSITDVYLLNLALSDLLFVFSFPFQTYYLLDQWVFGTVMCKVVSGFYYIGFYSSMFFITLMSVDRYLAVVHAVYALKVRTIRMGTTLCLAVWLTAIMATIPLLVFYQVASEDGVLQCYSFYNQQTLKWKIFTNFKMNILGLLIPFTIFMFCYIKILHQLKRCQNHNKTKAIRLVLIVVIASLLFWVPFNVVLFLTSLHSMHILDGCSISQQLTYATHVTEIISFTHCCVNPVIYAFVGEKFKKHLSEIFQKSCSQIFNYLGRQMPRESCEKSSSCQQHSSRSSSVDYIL

inhibition of β-arrestin production (CCR8 CHO-K1 β-arrestin bioassay, 2 nM hCCL1, subclone supernatant) [1]: ≥ 50%
B2: mouse antibody 509H4E10B3 (MAb 15) (antibody, V domains shown)
VH: EVQLVESGGGLVQPRGSLKLSCAASGFSFNAYAMNWVRQAPGKGLEWVARIRSKSNNFATYYADSVKDRFTISRDDSESMLYLQMNNLKTEDTAMYYCVRQTYGSRDYAMDYWGQGTSVTVSS
VL: DVVMTQTPLSLPVSLGDRASISCRSSQSLVHSNGNTYLHWYLQKPGQSPRLLIYKVSNRFSGVPDRFSGSGSGTDFTLKISRVEAEDLGVYFCSQSTHVPPYTFGGGTKLEIK

inhibition of β-arrestin production (CCR8 CHO-K1 β-arrestin bioassay, 2 nM hCCL1, subclone supernatant) [1]: ≥ 50%
B4: mouse antibody 531B9B1C9 (MAb 13) (antibody, V domains shown)
VH: B2 VH with R15K, E46D, F58Y, Y97F
VL: B2 VL with R18Q, R50K, S94C

inhibition of β-arrestin production (CCR8 CHO-K1 β-arrestin bioassay, 2 nM hCCL1, subclone supernatant) [1]: ≥ 50%
B10: mouse antibody 531A3E12H8 (MAb 17) (antibody, V domains shown)
VH: EVQLVESGGGLVQPKGSLKLSCAASGFSFNTYAMNWVRQAPGKGLEWVARIRTKSNNYATFYADSVKDRFTISRHDSESMLYLQMNNLKTEDTAMYYCVRGGSGIRYVRYFDVWGTGTTVTVSS
VL: DIVMTQAAPSVTVTPGESVSISCRSSKSLLHSNGNTYLYWFLQRPGQSPQLLIYRMSDLASGVPDRFSGSGSGSAFTLRISRVEAEDVGVYYCMQHLEYPFTFGSGTKLEIK

inhibition of β-arrestin production (CCR8 CHO-K1 β-arrestin bioassay, 2 nM hCCL1, subclone supernatant) [1]: ≥ 50%
B12: mouse antibody 516D7D12 (MAb 10) (antibody, V domains shown)
VH: B10 VH with F61Y, H75D, I105L
VL: B10 VL with A8T, T12P, D58N, D65E, I80V

inhibition of β-arrestin production (CCR8 CHO-K1 β-arrestin bioassay, 2 nM hCCL1, subclone supernatant) [1]: ≥ 50%
B14: mouse antibody 525F2F3F11 (MAb 11) (antibody, V domains shown)
VH: B10 VH with F61Y, H75D, S79N, I105L
VL: B10 VL with A8T, T12P, D58N, D65E, I80V

inhibition of β-arrestin production (CCR8 CHO-K1 β-arrestin bioassay, 2 nM hCCL1, subclone supernatant) [1]: ≥ 50%
B17: mouse antibody 529D10C10 (MAb 6) (antibody, V domains shown)
VH: B10 VH with K15R, T31A, F61Y, H75D, N86I, R109K
VL: B10 VL with T12P, D58N, D65E

Continued, binder first:

B1: mouse antibody 530H3G7D9 (MAb 12) (antibody, V domains shown)
VH: B2 VH with R15K, A31T, E46D, F58Y, Y97F
VL: B2 VL with R18Q, R50K, S94C
inhibition of β-arrestin production (CCR8 CHO-K1 β-arrestin bioassay, 2 nM hCCL1, subclone supernatant) [1]: ≥ 50%

B3: mouse antibody 538H5G10 (MAb 19) (antibody, V domains shown)
VH: B2 VH with R15K
VL: B2 VL with S96N
inhibition of β-arrestin production (CCR8 CHO-K1 β-arrestin bioassay, 2 nM hCCL1, subclone supernatant) [1]: ≥ 50%

B5: murine-human chimeric (human IgG1) antibody 516D7D12 (antibody, V domains shown)
VH: B10 VH with F61Y, H75D, I105L
VL: DIVMTQATPSVPVTPGESVSISCRSSKSLLHSNGNTYLYWFLQRPGQSPQLLIYRMSNLASGVPERFSGSGSGSAFTLRVSRVEAEDVGVYYCMQHLEYPFTFGSGTKLEIKR
notes: Chimeric antibody derived from murine antibody A10 and human IgG1
IC50 (nM), antagonist activity measured by β-arrestin assay [2]: 1.51 nM | binding result [3]: no binding

B6: murine-human chimeric (human IgG1) antibody 525F2F3F11 (antibody, V domains shown)
VH: B10 VH with F61Y, H75D, S79N, I105L
VL: B5 VL
notes: Chimeric antibody derived from murine antibody A11 and human IgG1
IC50 (nM), antagonist activity measured by β-arrestin assay [2]: 1.52 nM | binding result [3]: no binding

B7: mouse antibody 46A5C4B1 (MAb 2) (antibody, V domains shown)
VH: EVQLVESGGGLVQPKGSLKLSCAASGFSFNAYAMNWVRQAPGKGLEWVARIRSKSNNYATYYADSVKDRFIISRDDSESMLYLQMNNLKTEDTAMYFCVRGGTYGSTSYFDYWGQGTTLTVSS
VL: B10 VL with T12P, D58N, S74T, S105G
notes: Mouse monoclonal antibody from a hybridoma; also called A2
inhibition of β-arrestin production (CCR8 CHO-K1 β-arrestin bioassay, 2 nM hCCL1, subclone supernatant) [1]: ≥ 50% | IC50 (nM), antagonist activity measured by β-arrestin assay [2]: 6.24 nM | binding result [3]: no binding

B8: mouse antibody 531A6A3 (MAb 9) (antibody, V domains shown)
VH: B10 VH with N30K, F61Y, H75D, S79T, I105L, R106N
VL: B10 VL with T12P, D58N
inhibition of β-arrestin production (CCR8 CHO-K1 β-arrestin bioassay, 2 nM hCCL1, subclone supernatant) [1]: ≥ 50%

B9: mouse antibody 504E12D8D12 (MAb 18) (antibody, V domains shown)
VH: B10 VH with F61Y, D64A, H75D, S79T, I105L, R106N
VL: B10 VL with T12F, T14I, D58N
inhibition of β-arrestin production (CCR8 CHO-K1 β-arrestin bioassay, 2 nM hCCL1, subclone supernatant) [1]: ≥ 50%

B11: mouse antibody 507B6B10 (MAb 14) (antibody, V domains shown)
VH: B10 VH with T53S, F61Y, H75D
VL: B10 VL with T12P, L30Q, T36I, D58N
inhibition of β-arrestin production (CCR8 CHO-K1 β-arrestin bioassay, 2 nM hCCL1, subclone supernatant) [1]: ≥ 50%

B13: mouse antibody 506G6G5 (MAb 8) (antibody, V domains shown)
VH: B10 VH with T53S, F61Y, H75D, R106S
VL: B10 VL with T12P, D58N
inhibition of β-arrestin production (CCR8 CHO-K1 β-arrestin bioassay, 2 nM hCCL1, subclone supernatant) [1]: ≥ 50%

B15: mouse antibody 536H9D10 (MAb 7) (antibody, V domains shown)
VH: B10 VH with K15G, T31A, F61Y, H75D, N86I, R109K
VL: B10 VL with T12P, D58N, D65E
inhibition of β-arrestin production (CCR8 CHO-K1 β-arrestin bioassay, 2 nM hCCL1, subclone supernatant) [1]: ≥ 50%

B16: mouse antibody 508C11A12 (MAb 5) (antibody, V domains shown)
VH: B10 VH with F61Y, H75D, S79N, M80I, R106K
VL: B10 VL with T12P, D58N, D65E
inhibition of β-arrestin production (CCR8 CHO-K1 β-arrestin bioassay, 2 nM hCCL1, subclone supernatant) [1]: ≥ 50%

B18: mouse antibody 526G1C12 (MAb 16) (antibody, V domains shown)
VH: B10 VH with N30K, K43E, F61Y, H75D, S79T, I105L, R106N, T116P
VL: B10 VL with T12L, I21F, Y54F, D58N
inhibition of β-arrestin production (CCR8 CHO-K1 β-arrestin bioassay, 2 nM hCCL1, subclone supernatant) [1]: ≥ 50%

B19: mouse antibody 419C7B3B2 (MAb 4) (antibody, V domains shown)
VH: EVQLQQSGPELVKPGSSVKISCKASGYTFTDYNMDWVKQSHGKSLEWIGAINPNNGGTGYTQKFKGKATLTVDKSSSTAFMELRSLTSEDSAVYYCARRGVYMFAYWGQGTLVTVSA
VL: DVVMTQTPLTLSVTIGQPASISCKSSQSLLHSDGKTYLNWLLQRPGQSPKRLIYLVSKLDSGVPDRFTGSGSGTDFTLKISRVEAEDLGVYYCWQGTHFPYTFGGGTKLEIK
inhibition of β-arrestin production (CCR8 CHO-K1 β-arrestin bioassay, 2 nM hCCL1, subclone supernatant) [1]: ≥ 50%

Reference: patent publication US20260109770A1 (REMD BIOTHERAPEUTICS, published 2026)
